Measurements taken from paper PMC5322571, “Selection of DNA Aptamers for Ovarian Cancer Biomarker CA125 Using One-Pot SELEX and High-Throughput Sequencing”.

Experiments:
Details in all cases: protein: commercial; label: 5' TEX615 (Texas Red) for FA; FAM for APCE; single strand
[1] = target: T1, CA125 (Cancer Antigen 125, mucin glycoprotein) (human, UniProt Q8WXI7 1-14451); experiment: affinity probe capillary electrophoresis; TGKM (1 mM Mg2+); FA: 100 nM aptamer heat cycled in TGKM (25 mM Tris, 192 mM glycine, 5 mM KH2PO4, 1 mM MgCl2, pH 8.3), CA125 0-2000 U/mL in PBS, 0.13 mg/mL BSA, 90 min RT, read
[2] = target: T1, CA125 (Cancer Antigen 125, mucin …); experiment: fluorescence anisotropy; heat cycled with Mg2+ (5 mM in Results; TGKM is 1 mM in Methods); FA: 100 nM aptamer heat cycled in TGKM (25 mM Tris, 192 mM glycine, 5 mM KH2PO4, 1 mM MgCl2, pH 8.3), CA125 0-2000 U/mL in PBS, 0.13 mg/mL BSA, 90 min RT, read
[3] = target: T1, CA125 (Cancer Antigen 125, mucin …); experiment: affinity probe capillary electrophoresis; heat cycled in TE without Mg2+; TGK run buffer; FA: 100 nM aptamer heat cycled in TGKM (25 mM Tris, 192 mM glycine, 5 mM KH2PO4, 1 mM MgCl2, pH 8.3), CA125 0-2000 U/mL in PBS, 0.13 mg/mL BSA, 90 min RT, read
[4] = target: T1, CA125 (Cancer Antigen 125, mucin …); experiment: fluorescence anisotropy; heat cycled in PBS without Mg2+; FA: 100 nM aptamer heat cycled in TGKM (25 mM Tris, 192 mM glycine, 5 mM KH2PO4, 1 mM MgCl2, pH 8.3), CA125 0-2000 U/mL in PBS, 0.13 mg/mL BSA, 90 min RT, read
[5] = target: T1, CA125 (Cancer Antigen 125, mucin …); experiment: fluorescence anisotropy; FA: 100 nM aptamer heat cycled in TGKM (25 mM Tris, 192 mM glycine, 5 mM KH2PO4, 1 mM MgCl2, pH 8.3), CA125 0-2000 U/mL in PBS, 0.13 mg/mL BSA, 90 min RT, read

B1: CA125_1 (CA125_1_NP, without primer regions) (ssDNA)
DNA: ACTAGCTCCGATCTTTCTTATCTAC
Binder B1 has a Kd [1] of 80 ± 38 U/mL and a Kd [2] of 207 ± 109 U/mL.

B2: CA125_12 (CA125_12_NP, without primer regions) (ssDNA)
DNA: TGCCTTATTACTCTCTCCTGTTAAC
B2 was tested, and the Kd [3] was 131 ± 93 U/mL and the Kd [4] was 118 ± 123 U/mL.

B3: CA125_2 (without primer regions) (ssDNA)
DNA: CACTCTTTCATTTTATTTATAATTAT
B3: no binding [5].

B4: CA125_3 (without primer regions) (ssDNA)
DNA: TTCAATATTACTTATCTTTTTTTTT
B4: no binding [5].
